Test system: Escherichia coli TOP10
Experiment: shrunken log2 fold change of peptide-encoding DNA abundance (4.5 h post-induction vs induction); higher = less antimicrobial activity (less host growth inhibition)
Details: time post-induction: 4.5 h; library: site-saturation at positions 5, 18, 19, 20
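Note: peptides expressed intracellularly from a pBAD plasmid library in pooled LB shake-flask culture, induced with 0.3% L-arabinose, DNA abundance read by NGS, three biological replicates, DESeq2 with apeglm shrinkage.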

Row | Sequence | shrunken log2 fold change
1 | RRIRCRPPRLPRPRPRPKRKPRP | 0.157
2 | RRIRYRPPRLPRPRPRPVMFPRP | -0.899
3 | RRIRTRPPRLPRPRPRPKDIPRP | -0.482
4 | RRIRTRPPRLPRPRPRPSYNPRP | -0.591
5 | RRIRRRPPRLPRPRPRPHFAPRP | 0.382
6 | RRIRIRPPRLPRPRPRPCPWPRP | -0.161
7 | RRIRFRPPRLPRPRPRPYEYPRP | -0.488
8 | RRIRHRPPRLPRPRPRPRLFPRP | 0.164
9 | RRIRIRPPRLPRPRPRPKFPPRP | -0.204
10 | RRIRRRPPRLPRPRPRPDRSPRP | -0.0169
11 | RRIRSRPPRLPRPRPRPCEEPRP | 0.00181
12 | RRIRYRPPRLPRPRPRPTAMPRP | 0.133
13 | RRIRNRPPRLPRPRPRPKLEPRP | 0.0965
14 | RRIRERPPRLPRPRPRPNANPRP | 0.343
15 | RRIRDRPPRLPRPRPRPKAGPRP | 0.143
16 | RRIRSRPPRLPRPRPRPLICPRP | -0.221
17 | RRIRMRPPRLPRPRPRPPWAPRP | 0.911
18 | RRIRERPPRLPRPRPRPTVEPRP | -0.0686
19 | RRIRKRPPRLPRPRPRPHPHPRP | 2.25
20 | RRIRVRPPRLPRPRPRPSNAPRP | 0.111
21 | RRIRIRPPRLPRPRPRPAWRPRP | 0.263
22 | RRIRCRPPRLPRPRPRPGKRPRP | 0.244
23 | RRIRNRPPRLPRPRPRPTSTPRP | -0.7
24 | RRIRARPPRLPRPRPRPYHEPRP | -0.167
25 | RRIRYRPPRLPRPRPRPLSMPRP | -0.036

Row | Sequence | shrunken log2 fold change
26 | RRIRQRPPRLPRPRPRPAYRPRP | -0.216
27 | RRIRKRPPRLPRPRPRPYRNPRP | 0.00408
28 | RRIRRRPPRLPRPRPRPDLWPRP | 0.676
29 | RRIRRRPPRLPRPRPRPAIEPRP | 0.109
30 | RRIRNRPPRLPRPRPRPSWGPRP | -0.139
31 | RRIRYRPPRLPRPRPRPYYAPRP | -0.634
32 | RRIRPRPPRLPRPRPRPRKLPRP | 0.342
33 | RRIRWRPPRLPRPRPRPLEPPRP | 0.676
34 | RRIRRRPPRLPRPRPRPDNEPRP | 0.207
35 | RRIRARPPRLPRPRPRPYDWPRP | 0.0315
36 | RRIRGRPPRLPRPRPRPQTDPRP | 0.381
37 | RRIRLRPPRLPRPRPRPFTIPRP | -0.174
38 | RRIRIRPPRLPRPRPRPETQPRP | 0.0575
39 | RRIRDRPPRLPRPRPRPQRAPRP | 0.0568
40 | RRIRPRPPRLPRPRPRPCSGPRP | -0.0356
41 | RRIRGRPPRLPRPRPRPPQQPRP | 0.825
42 | RRIRLRPPRLPRPRPRPVSSPRP | 0.242
43 | RRIRVRPPRLPRPRPRPVCHPRP | -0.29
44 | RRIRQRPPRLPRPRPRPKFSPRP | -0.914
45 | RRIRGRPPRLPRPRPRPIHFPRP | -0.252
46 | RRIRRRPPRLPRPRPRPVLRPRP | 1.11
47 | RRIRDRPPRLPRPRPRPGLDPRP | 0.0981
48 | RRIRGRPPRLPRPRPRPMWKPRP | 0.0121
49 | RRIRWRPPRLPRPRPRPYAMPRP | 0.0576
50 | RRIRIRPPRLPRPRPRPKWSPRP | 0.107
